Data reported in patent US20240228572A1 (I2O THERAPEUTICS, published 2024).
*1 amine or outer side, *2 acyl side, *3 side chain or, on linkers, in order; H or OH if unused. Bridges are numbered along the chain shown (N, C = ends). Primed or numbered codes have the meaning given here. Where no end group is shown, it is not given here. Side-chain parts run from the residue outwards. [ ]: non-standard residue; d: D form. The star is where a group is joined. dpeg″ = spacer —[CO(CH2)O(CH2)2O(CH2)NH]—, O=C(COCCOCN[*:1])[*:2]; dpeg = —[CO(CH2)O(CH2)2O(CH2)NH]— spacer, O=C(COCCOCN[*:1])[*:2]; C20 diacid = O=C(O)CCCCCCCCCCCCCCCCCCC(=O)*; γGlu = O=C(O)[C@H](CCC(=O)[*:2])N[*:1]; Aib = CC(C)(N)C(=O)O

Legend:
[1] = molecular target: human Glucagon receptor (GCGR) (human, UniProt P47871 26-477); assay: cell-based or functional assay
[2] = molecular target: human GLP-1 receptor (GLP-1R) (human, UniProt P43220 24-463); assay: cell-based or functional assay
human GLP-1 receptor (GLP-1R), sequence (P43220 24-463): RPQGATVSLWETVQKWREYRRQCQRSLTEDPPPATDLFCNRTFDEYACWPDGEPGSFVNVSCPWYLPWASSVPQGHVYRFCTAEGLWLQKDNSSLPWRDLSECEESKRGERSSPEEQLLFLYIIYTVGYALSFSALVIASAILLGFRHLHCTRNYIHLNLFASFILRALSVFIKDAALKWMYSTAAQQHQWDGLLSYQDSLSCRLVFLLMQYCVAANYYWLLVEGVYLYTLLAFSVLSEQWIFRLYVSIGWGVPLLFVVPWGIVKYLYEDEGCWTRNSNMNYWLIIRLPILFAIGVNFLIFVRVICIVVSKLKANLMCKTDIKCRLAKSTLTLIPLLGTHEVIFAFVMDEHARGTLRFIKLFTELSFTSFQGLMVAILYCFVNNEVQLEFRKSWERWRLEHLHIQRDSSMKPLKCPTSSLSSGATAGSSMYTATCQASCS

Which results are given for YSHGTFTSDYSKYLDK([γGlu-γGlu-dpeg-C20 diacid])KYAQEF[Aib]EWLEDEPSSGAPPPS-OH [Compound A8]?
pEC50, cAMP accumulation [1]: 9.9 pEC50 (-log M); pEC50, cAMP accumulation [2]: < 9 pEC50 (-log M)

How did the “pEC50, cAMP accumulation” value [1] turn out when YSHGTFTSDYSKYLD[Aib]KYAK([γGlu-γGlu-dpeg-C20 diacid])EFV[Aib]WLEDEPSSGAPPPS-OH [Compound A5] was run?
Its value is 11.6 pEC50 (-log M).

Which “pEC50, cAMP accumulation” value [1] does the source give for YSHGTFTSDYSKYLK([γGlu-γGlu-dpeg-C20 diacid])[Aib]KYAQEFV[Aib]WLEDEPSSGAPPPS-OH [Compound A1] here?
The value was 11.5 pEC50 (-log M).

With YSHGTFTSDYSKYLDK([γGlu-γGlu-dpeg-C20 diacid])KYAQEF[Aib]KWLEDEPSSGAPPPS-OH [Compound A9] as the binder, how does the “pEC50, cAMP accumulation” value [1] read?
Its value is 10.6 pEC50 (-log M).

And the “pEC50, cAMP accumulation” value [2]?
Its value is < 9 pEC50 (-log M).

B1: Compound A29 (peptide)
peptide: YSHGTFTSDYSKYLD[Aib]KYAQK([γGlu-γGlu-dpeg″-C20 diacid])FVKWLEEEPSSGAPPPS-OH
modifications: lactam 24-28; N-terminus assumed
SMILES: CC(C)C[C@@H]1NC(=O)[C@H](Cc2c[nH]c3ccccc23)NC(=O)[C@@H](NC(=O)[C@@H](NC(=O)[C@H](Cc2ccccc2)NC(=O)[C@H](CCCCNC(=O)CC[C@H](NC(=O)CC[C@H](NC(=O)COCCOCNC(=O)CCCCCCCCCCCCCCCCCCC(=O)O)C(=O)O)C(=O)O)NC(=O)[C@H](CCC(N)=O)NC(=O)[C@H](C)NC(=O)[C@H](Cc2ccc(O)cc2)NC(=O)[C@H](CCCCN)NC(=O)C(C)(C)NC(=O)[C@H](CC(=O)O)NC(=O)[C@H](CC(C)C)NC(=O)[C@H](Cc2ccc(O)cc2)NC(=O)[C@H](CCCCN)NC(=O)[C@H](CO)NC(=O)[C@H](Cc2ccc(O)cc2)NC(=O)[C@H](CC(=O)O)NC(=O)[C@H](CO)NC(=O)[C@@H](NC(=O)[C@H](Cc2ccccc2)NC(=O)[C@@H](NC(=O)CNC(=O)[C@H](Cc2c[nH]cn2)NC(=O)[C@H](CO)NC(=O)[C@@H](N)Cc2ccc(O)cc2)[C@@H](C)O)[C@@H](C)O)C(C)C)CCCCNC(=O)CC[C@@H](C(=O)N[C@@H](CCC(=O)O)C(=O)N2CCC[C@H]2C(=O)N[C@@H](CO)C(=O)N[C@@H](CO)C(=O)NCC(=O)N[C@@H](C)C(=O)N2CCC[C@H]2C(=O)N2CCC[C@H]2C(=O)N2CCC[C@H]2C(=O)N[C@@H](CO)C(=O)O)NC(=O)[C@H](CCC(=O)O)NC1=O
Which “pEC50, cAMP accumulation” value [2] does the source give for B1 here?
Its value is < 9 pEC50 (-log M).

YSHGTFTSDYSKYLD[Aib]KK([γGlu-γGlu-dpeg-C20 diacid])AQEFV[Aib]WLEDEPSSGAPPPS-OH [Compound A4] was tested. Which “pEC50, cAMP accumulation” value [1] did it give?
Its value is 11.7 pEC50 (-log M).

With YSHGTFTSDYSKYLDK([γGlu-γGlu-dpeg″-C20 diacid])KYAKEFVEWLEDEPSSGAPPPS-OH (lactam 20-24) [Compound A11] as the binder, how does the “pEC50, cAMP accumulation” value [1] read?
Its value is 11.7 pEC50 (-log M).

What about the “pEC50, cAMP accumulation” value [2] of the same binder?
Its value is < 9 pEC50 (-log M).

Which results are given for YSHGTFTSDYSKYLDK([γGlu-γGlu-dpeg-C20 diacid])KYAQEF[Aib]SWLEDEPSSGAPPPS-OH [Compound A10]?
pEC50, cAMP accumulation [1]: 10.4 pEC50 (-log M); pEC50, cAMP accumulation [2]: < 9 pEC50 (-log M)

For YSHGTFTSDYSKYLDK([γGlu-γGlu-dpeg-C20 diacid])KYAQEFV[Aib]WLEDEPSSGAPPPS-OH [Compound A2], which “pEC50, cAMP accumulation” value [1] is on record?
Its value is 12.5 pEC50 (-log M).

What does the source list for YSHGTFTSDYSKYLDK([γGlu-γGlu-dpeg″-C20 diacid])KYAEEFVKWLEDEPSSGAPPPS-OH (lactam 20-24) [Compound A12]?
pEC50, cAMP accumulation [1]: 11.8 pEC50 (-log M); pEC50, cAMP accumulation [2]: < 9 pEC50 (-log M)

How did the “pEC50, cAMP accumulation” value [1] turn out when YSHGTFTSDYSKYLD[Aib]K([γGlu-γGlu-dpeg-C20 diacid])YAQEFV[Aib]WLEDEPSSGAPPPS-OH [Compound A3] was run?
Its value is 12.5 pEC50 (-log M).
